Values of other authors as cited in patent US20260007686A1, “COMPOSITIONS AND METHODS FOR IMPROVING VISION” (Ripple Therapeutics Corporation, priority 2022, published 2026).

Columns and labels:
[1] = test system: visual acuity of individuals with diabetic macular edema (DME); details: literature studies (Boyer et al.; Callanan et al.)
[2] = test system: macular edema in individuals with diabetic macular edema (DME); details: literature studies (Boyer et al.; Callanan et al.)

B1: ranibizumab (antibody, chains of the INN, looked up, V domains shown)
VH: EVQLVESGGGLVQPGGSLRLSCAASGYDFTHYGMNWVRQAPGKGLEWVGWINTYTGEPTYAADFKRRFTFSLDTSKSTAYLQMNSLRAEDTAVYYCAKYPYYYGTSHWYFDVWGQGTLVTVSS
VL: DIQLTQSPSSLSASVGDRVTITCSASQDISNYLNWYQQKPGKAPKVLIYFTSSLHSGVPSRFSGSGSGTDFTLTISSLQPEDFATYYCQQYSTVPWTFGQGTKVEIK
modifications: Fab
notes: ranibizumab injection, a clinically approved anti-VEGF intravitreal injection
Mean Change in BCVA at M3 ([1]; month 3): +6 letters
Mean Change in BCVA at M6 ([1]; month 6): +8 letters
Mean Change in CST at M3 ([2]; month 3): −140 μm
Mean Change in CST at M6 ([2]; month 6): −133 μm
